Laboratory results: patent US20230151089A1

Columns and labels:
[1] = target: alpha-synuclein oligomers (UniProt P37840); test: ELISA, alpha-Syn oligomer coated plate, exp 1
[2] = target: alpha-synuclein oligomers (UniProt P37840); test: ELISA, alpha-Syn oligomer coated plate, exp 3
[3] = target: alpha-synuclein oligomers (UniProt P37840); test: ELISA (Example 3), reference antibody 26F1
[4] = target: alpha-synuclein oligomers (UniProt P37840); test: ELISA, alpha-Syn oligomer coated plate, exp 2
[5] = target: alpha-synuclein oligomers (UniProt P37840); test: ELISA, ratio of EC50 values, reference alpha-Syn fibrils (FIG. 3)
alpha-synuclein monomers = alpha-synuclein monomers (UniProt P37840); test: ELISA on antigen-coated plate, antibody titrated in tenfold steps, OD 450-630 nm
[6] = target: alpha-synuclein oligomers (UniProt P37840); test: as above
alpha-synuclein fibrils = alpha-synuclein fibrils (UniProt P37840); test: as above

Substance | EC50 [1] [nM] | EC50 [2] [nM] | fold weaker binding affinity to alpha-Syn oligomers than 26F1 [3] [fold] | EC50 [4] [nM] | binding affinity ratio alpha-Syn oligomers:alpha-Syn fibrils [5] | EC50 (read off the curve) (alpha-synuclein monomers) [nM] | EC50 (read off the curve) [6] [nM] | EC50 (read off the curve) (alpha-synuclein fibrils) [nM]
5G4 antibody | 0.2 | 0.6 | > 2 | 0.6 | – | – | – | –
MJFR14 antibody | 0.06 | 0.14 | – | 0.06 | 1 | 0.02 | 0.02 | 0.02
